± gives the half width of the 95% confidence interval.

These results are taken from the supplement of paper PMC12764529.

The nature of series [1]: folding stability dG unfold from trypsin proteolysis; higher = more stable. As to the method: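 Folding stability of de novo designed mini-proteins (<80 aa, no Cys; designed by TrROS, TrMRF, ProteinMPNN and the joint model) was measured by cDNA display proteolysis with trypsin and chymotrypsin. Each protease was used at 11 concentrations in a threefold dilution series plus a no-protease condition. K50 was inferred by Bayesian fitting of sequencing counts, and dG unfold was derived against a sequence-predicted unfolded-state K50 (Tsuboyama et al. method). Sequences shown include variable-length N-terminal GS-type padding (SAGGSAGG...) inside a display construct carrying a PA tag. Rows were kept only if the AF2 dimer inter-PAE was >15, to exclude likely homo-oligomers.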

Series [2] can be described thus: folding stability dG unfold (combined trypsin and chymotrypsin); higher = more stable. Summed up: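 Sequencing followed digestion of designed mini-proteins with trypsin and chymotrypsin, each at 11 concentrations in threefold dilutions together with a no-protease condition. The mini-proteins were under 80 residues, had no cysteine, sat in a PA-tagged cDNA display construct, and were kept only if AlphaFold2 dimer inter-PAE was above 15. From the counts, Bayesian fitting gave K50, and unfolding free energy was derived against a sequence-predicted unfolded-state K50 and a shared folded-state K50, per protease or combined.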

On to “SAGGSAGGTIIDRIKELFGPGMKINIQEHPSEPYYRIRIKNPGFGQKREIHVPPDSIEDILDQISAGGSAGG [r6_612_TrROS]”, for which the “folding stability dG unfold” value in series [1] amounted to 0.538 ± 0.33 kcal/mol; in series [2], 0.202 ± 0.36 kcal/mol.
For “SAGGSAIRIEPDEDGYIKIEKPSPPGEPASELIEELKDFFPNWEVETHPHPNGRAEIIFRIPPDQFSAGGSA [r15_1047_TrROS]”, in that order: 0.244 ± 0.077 kcal/mol and -0.132 ± 0.15 kcal/mol.
Regarding “SAGGSAKPVEVELPDGIEIYYPKDRMYIEINLPNGRPIKIPFEFDDPNDPERALDKARDLVKKLPWSAGGSA [r15_748_TrROS]”, the “folding stability dG unfold” value in series [1] was -0.577 ± 0.41 kcal/mol; in series [2], under -1 kcal/mol.
For “SAGGSAMDAEQIEEKIKEAMQDHGHEVEVEVQRDPNNTVVIQVESGPGMDKDRIQEALQEKFGVKISAGGSA [r15_807_TrROS]”, in that order: -0.793 ± 0.1 kcal/mol and under -1 kcal/mol.
As to “SAGGSAMKVATLKVGGVDHTVEITPLPDGSYPVTTTAEEGGETTTTVVPKSEVKKLEDLPPEYRLLSAGGSA [r15_629_JUSTAS]”, the “folding stability dG unfold” value in series [1] is -0.414 ± 0.49 kcal/mol; in series [2], under -1 kcal/mol.
“SAGGSAMKVKSIHWQRHGDRPMVRIKIQNPDGKKRERNIPMDDPEKFKKEAKELAKEGKIKEIEPYSAGGSA [r15_575_TrROS]”: the entries for the “folding stability dG unfold” value in series [1] and in series [2] were -0.42 ± 0.81 kcal/mol and under -1 kcal/mol, respectively.
For the sequence “SAGGSAMPKPKVEILKVEKTEDGTVKVPVKVEVTFEDGSKETVPATVTFEVEEGKPLGPEALKEAISAGGSA [r15_836_TrMRF]”, the “folding stability dG unfold” value is -0.377 ± 0.11 kcal/mol in series [1] and under -1 kcal/mol in series [2].
For “SAGGSAMTLEELKGMPIRSWWPGGQKIEMPIKKIDLNDPMFEIKFGGEPIKIPFNHPMRIEIQPPKSAGGSA [r15_355_TrROS]”, in that order: 0.0637 ± 0.052 kcal/mol and -0.64 ± 0.27 kcal/mol.
For “SAGGSANMREVEIPMTPNDLEEALEEVEDAPPGRNVSVNMTNPEEGKPYPIKIRVNENGKLTEIEFSAGGSA [r15_228_TrROS]”, in that order: 0.501 ± 0.077 kcal/mol and -0.179 ± 0.27 kcal/mol.
Turning to “SAGGSAPPASAPGVVEEVEAEVPVDVPEVARLTGRPPRPGERYRVRVVRRVYPDGRVETDVYIEPGSAGGSA [r15_91_TrMRF]”, the entries for the “folding stability dG unfold” value in series [1] and in series [2] were 0.328 ± 0.064 kcal/mol and -0.252 ± 0.14 kcal/mol, respectively.
For “SAGGSASPEELAERVAKEIEEKYPVEVTEIRVEEVSEDEVVLSMTYRKPLPGGETEVENRTVTLPQSAGGSA [r15_276_JUSTAS]”, in that order: 0.162 ± 0.26 kcal/mol and -0.404 ± 0.46 kcal/mol.
For the sequence “SAGGSAVPKSDPVIRIKVKYPSNPQVITVPRSEIVEMEVGPPENIMTIKNPKTGKEYPATLLEILASAGGSA [r15_495_JUSTAS]”, the “folding stability dG unfold” value in series [1] was -0.531 ± 0.23 kcal/mol; in series [2], under -1 kcal/mol.
Regarding “SAGGSITLEIELPNGAKITVTIEYDEETGTVTIEAEITLPNGTVIRIKATINKDGTITIEKIEVFKPSAGGS [r16_213_TrROS_Hall]”, the entries for the “folding stability dG unfold” value in series [1] and in series [2] were 4.82 ± 0.69 kcal/mol and over 6 kcal/mol, respectively.
For “SAGGSLVTELIENNPEFQALLESGTTLKVTFPGGLSGEIEVKNKSPEEIEKAILARNPGPVEIEITGSAGGS [r16_655_JUSTAS]”, in that order: 0.384 ± 0.11 kcal/mol and -0.192 ± 0.2 kcal/mol.
For “SAGGSMEIPLGETIPIFFDDVIIEIEPETHEIHVIAEDSEKALELIKNLPFPIPAGEVKELSPEEFSAGGSA [r2_418_TrMRF]”, in that order: 0.352 ± 0.042 kcal/mol and -0.364 ± 0.21 kcal/mol.
“SAGGSNNDNQPEPKVPYMEITINIPVNYNPNQSEEDRKRQVQEFIEELKDMYIPFPNGYPIRIDVMSAGGSA [r2_149_TrROS]”: the “folding stability dG unfold” value in series [1] is 0.149 ± 0.13 kcal/mol; in series [2] it was -0.554 ± 0.49 kcal/mol.
For “SAGGSNPGDPEQVPKVKIKITYPDNGKEFTIPVEELRNGPIEEAVSEIANEARERYPGHPLRIEPVSAGGSA [r2_392_TrROS]”, in that order: -0.836 ± 0.41 kcal/mol and under -1 kcal/mol.
For “SAGGSPYRIKFEFPNGPKFEFPVKITEIQPPNGNLYANITAQDDGKPHELMFPAPNIRPVEIEPPPSAGGSA [r2_319_TrROS]”, in that order: -0.796 ± 0.69 kcal/mol and -0.414 ± 0.66 kcal/mol.
“SAGGSSLDEKIKQAVEEGKVPTEIEFTDPSNDLKTRYLVTVKSVLPGSYEVEVEEEIFDPDNPVLVSAGGSA [r2_420_JUSTAS]”: the “folding stability dG unfold” value in series [1] was -1.07 ± 0.27 kcal/mol; in series [2], under -1 kcal/mol.
For “SAGGSTLDELIDAIKKAAKKGKEPVEIEFPNPNGGMIKINPDGSIETFPPNGEPQRFKIPLDDLKISAGGSA [r2_97_TrROS]”, in that order: -0.568 ± 0.11 kcal/mol and -0.781 ± 0.25 kcal/mol.
With “SAGGSYRIEIEDIDPKPQWRPNPNGEWEPRPTLTIEVKIERNPDEMPEKEKQKIEEQAERIAKKFFSAGGSA [r2_40_TrROS]”, the “folding stability dG unfold” value is -0.436 ± 0.4 kcal/mol in series [1] and under -1 kcal/mol in series [2].
For “SAGGTTTESVSEDSTDNGEYVTTTTTTDPVGPSTVVTTTTTTTPADGTTTTTTTTYTVPPGAPASAVVSAGG [r13_3_JUSTAS]”, in that order: 0.354 ± 0.052 kcal/mol and -0.00338 ± 0.16 kcal/mol.
For “SAGGTVKVTVEVRDEETGETVTVEVEVEPAPAPPVVVLPAEDLEKLRELGFPENAVLDEETNELVIFSAGGS [r16_194_TrROS_Hall]”, in that order: 0.537 ± 0.085 kcal/mol and -0.204 ± 0.24 kcal/mol.
For “SAGMDPNEKREVVVELEFEVPDPSNPEGGSVPIRVTLKATGKGTEEEAEELKKKAEEEAREKVEKGELLSAG [r5_532_JUSTAS]”, in that order: 0.687 ± 0.15 kcal/mol and -0.287 ± 0.56 kcal/mol.
As to “SAGMEVTVTDPIPLDPTPDGVPDVKPELVEERAKAAGFTDEIESVDTTPKPDSVTTTVTHPTATLTAGSAGG [r19_398_JUSTAS]”, the figures for the “folding stability dG unfold” value in series [1] and in series [2] were -0.201 ± 0.082 kcal/mol and under -1 kcal/mol, respectively.
For “SAGMKKEKPKETVTITLKNGKKIEIVKTDDSIKIFITDKNGKKRELTVKGLSLEEILKKLEELGFEVEPSAG [r5_613_TrROS_Hall]”, in that order: 0.776 ± 0.082 kcal/mol and 0.353 ± 0.2 kcal/mol.
With “SAGMKVEVVERKGPDGRLVRVVKETTITPVPGPAVAEANGAPLTPEDEKVVTVTTTVLDPEGKVLETVDSAG [r5_128_JUSTAS]”, the “folding stability dG unfold” value in series [1] was -0.903 ± 0.43 kcal/mol; in series [2], under -1 kcal/mol.
For “SAGMSTSGPIFVPEGPPAIYISYPKPNVKFVVPVSEGIEAVKKRAEEPGLNPVIIKVVETPPGVPVTLSAGG [r19_386_JUSTAS]”, in that order: -0.988 ± 0.34 kcal/mol and under -1 kcal/mol.
For “SAGMVVKVTVITEDEKPIEVYLPVKDPEKYPPEKVEEAAKEIAKKLEEEGIPVKKVSVEPIAPKPGLLSAGG [r19_334_TrMRF]”, in that order: 0.544 ± 0.087 kcal/mol and 0.0993 ± 0.4 kcal/mol.
For “SAGMYIEGSLSSPEEAPVVAVPFPGPEKLLLAPLAVGLEEIREALEEEGFEPVEIRVAETEPGVPLDLSAGG [r19_386_TrMRF]”, in that order: 0.211 ± 0.024 kcal/mol and -0.694 ± 0.24 kcal/mol.
Turning to “SAGPGNWFIMIFINIEIKLETVPDPDGKPWLKITISIKFFVMIVRLPPDGKARMEMFPITIKFTFTIPLSAG [r5_428_TrROS]”, the “folding stability dG unfold” value in series [1] was 4.17 ± 0.29 kcal/mol; in series [2], over 6 kcal/mol.
On to “SAGWKLKIESPNGAEIEINPESGMIDVKNPDNGQPWSVMIPPENPGEINIFNPGDGEPLQPFKIDEIEPSAG [r5_761_TrROS]”, for which the “folding stability dG unfold” value in series [1] was 0.337 ± 0.23 kcal/mol; in series [2], 0.111 ± 0.41 kcal/mol.
For “SAIRGLPPEEIEKAVKKLAKEGNVEIEIKPFTMRVYPPDGGQQPYQYYQIEIYNPDNGKPIEDKIKKLFSAG [r14_628_TrROS]”, in that order: 0.167 ± 0.25 kcal/mol and under -1 kcal/mol.
For “SAITIMIPPNQTLEEIADELGFPGIKDVKHEPFEPGYYPATFEFPGDPDREIEIMFNPEPDWMMVEVEDSAG [r14_713_TrROS]”, in that order: 0.809 ± 0.054 kcal/mol and 0.0271 ± 0.13 kcal/mol.
For “SAMEVTVTPLPDGTTRVTLPDGVEITHPAPGTGEPVLVEVTEVPGTGTYRITIRSPAGGEELRELLVPVSAG [r14_975_JUSTAS]”, in that order: 0.986 ± 0.03 kcal/mol and 0.443 ± 0.091 kcal/mol.
On to “SAMLTTLETTTTTSDSLTVTTSLSLLPDGSLVTTTTVIDTSGNVLSSTTTVEPGPPPVTPENIALMVRLSAG [r14_171_JUSTAS]”, for which the “folding stability dG unfold” value in series [1] was found to be 0.298 ± 0.12 kcal/mol; in series [2], 0.125 ± 0.29 kcal/mol.
For “SLEIAKELGFPIKRFEPTEMDPDNGRQKWEAYIPMPNRTVRVDIDIRYEPDPNGKRQPKIQIDSIEFMPPSA [r9_613_TrROS]”, in that order: 0.392 ± 0.12 kcal/mol and -0.242 ± 0.23 kcal/mol.
For “SMNVKPFSSTISNPAVTVTTPITQPSSGEGTATLTIHRPESVTTTTHPVTDLQALIDSHAAGGVSLTGTSSA [r9_384_JUSTAS]”, in that order: -0.377 ± 0.095 kcal/mol and under -1 kcal/mol.
For “SMPISAEELAELFPGVVEIKPEPDSTVITAKDPNGTNPVFTLSPAGTVTVTTYTPGSGTTTTTTIPTALLSA [r9_427_JUSTAS]”, in that order: 0.681 ± 0.025 kcal/mol and 0.159 ± 0.071 kcal/mol.
In the case of “SMSEELKKEIEAFLKEKGASIDFKTDPSTGKITITVTIPGKGTTTTITLTFPPDNPEEIKEKIKELIEKGSA [r9_42_JUSTAS]”, the “folding stability dG unfold” value was 4.88 ± 0.6 kcal/mol in series [1] and over 6 kcal/mol in series [2].
For “SMSPSETETTTYTRTIPFPKSNPEQAKAEAEKEVRAELEAKGLKIDIPITIEWENDTVTVTIPISVTPPLSA [r9_889_JUSTAS]”, in that order: 0.594 ± 0.13 kcal/mol and -0.144 ± 0.29 kcal/mol.
For “SMTITHKIPPDDPEKAEEEIKEKIEKETGLKVEKVEVPEGDGATLVVTIDKEKPVVTAEVVPLLPDGTPVSA [r9_173_JUSTAS]”, in that order: 0.85 ± 0.17 kcal/mol and 0.191 ± 0.35 kcal/mol.
